Holding throughout (conditions): one partner purified
The target in test [1] is T1, human CCR7 L325S fused to YPet (human, UniProt P32248 25-378, L325S).
T1 construct: chemokine receptor CCR7, human (hCCR7), point mutant L325S; also called hCCR7-YPet L325S; source: HeLa, transiently transfected (pcDNA3 hCCR7-YPet L325S), on cells; not shown: YPet, C-terminal, kept
T1 sequence (looked up): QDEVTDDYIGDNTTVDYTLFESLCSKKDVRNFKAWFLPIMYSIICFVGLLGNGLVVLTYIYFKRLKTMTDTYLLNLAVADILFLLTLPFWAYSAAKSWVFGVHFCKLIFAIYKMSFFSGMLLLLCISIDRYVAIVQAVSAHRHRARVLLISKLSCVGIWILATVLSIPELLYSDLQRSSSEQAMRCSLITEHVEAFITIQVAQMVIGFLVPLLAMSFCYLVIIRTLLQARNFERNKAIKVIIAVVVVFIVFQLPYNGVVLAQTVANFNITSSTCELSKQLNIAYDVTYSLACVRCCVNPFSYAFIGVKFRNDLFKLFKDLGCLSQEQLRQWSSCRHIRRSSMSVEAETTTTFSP
The experiment in a line: flow cytometry on cells; HeLa cells transiently expressing YPet-tagged CCR7 variants incubated at 4 °C for indicated times with 25 nM CCL19-S6^649P1, washed, MFI (chemokine binding). (In general: A flow cytometer gives signals particle by particle.)

In test [2] the target is T2, human CCR7 A315G fused to YPet (human, UniProt P32248 25-378, A315G).
T2 construct: chemokine receptor CCR7, human (hCCR7), point mutant A315G; also called hCCR7-YPet A315G; source: HeLa, transiently transfected (pcDNA3 hCCR7-YPet A315G), on cells; not shown: YPet, C-terminal, kept
T2 sequence (looked up): T1 sequence (looked up) with A291G, S301L
Described as above.

In test [3] the target is T3, human CCR7 SNP V317I fused to YPet (human, UniProt P32248 25-378, V317I).
T3 construct: chemokine receptor CCR7, human (hCCR7), naturally occurring SNP V317I; also called CCR7 V317I; hCCR7-YPet V317I; source: HeLa, transiently transfected (pcDNA3 hCCR7-YPet V317I), on cells; not shown: YPet, C-terminal, kept
T3 sequence (looked up): T1 sequence (looked up) with V293I, S301L
The experiment in a line: flow cytometry on cells; competition: HeLa cells transiently expressing YPet-tagged CCR7 variants, 37 °C, 30 min, 25 nM CCL19-S6^649P1 with graded concentrations of native unlabelled hCCL19; MFI (binding and uptake).

The target in test [4] is T1, human CCR7 L325S fused to YPet. The test is described as above.
For test [5], the target named is T2, human CCR7 A315G fused to YPet. The test is described as above.
The target in test [6] is T4, human CCR7 wild-type fused to YPet (hCCR7-YPet) (human, UniProt P32248 25-378).
T4 construct: chemokine receptor CCR7, human (hCCR7); also called CCR7 WT; wild-type CCR7; source: HeLa, transiently transfected (pcDNA3 hCCR7-YPet), on cells; not shown: YPet, C-terminal, kept
T4 sequence (looked up): T1 sequence (looked up) with S301L
Described as above.

Changes are numbered by the printed parent chain.

B1: human CCL19-S6 site-specifically labelled with Dy649P1 (hCCL19-S6^649P1) (ligand, UniProt Q99731 22-98, looked up)
chain: GTNDAEDCCLSVTQKPIPGYIVRNFHYLLIKDGCRVPAVVFTTLRGRQLCAPPDQPWVERIIQRLQRTSAKMKRRSS
modifications: Dy649P1 covalently and site-specifically attached (CoA-Dy649P1, SFP synthase)
For B1, the “fold fluorescence of bound CCL19-S6^649P1 against wild-type CCR7” value in test [1] and in test [2] was approximately 2 fold throughout.

B2: native human CCL19 (hCCL19), unlabelled (ligand, UniProt Q99731 22-98, looked up)
chain: B1 chain
Broadly, the Kd is a measure of binding affinity in units of concentration. Lower therefore signals a tighter complex. For the molecule B2, the Kd in test [3] was approximately 31 nM; in test [4] it was approximately 7 nM; in test [5] it was approximately 10 nM; in test [6], approximately 29 nM.

These data come from publication PMC9101108, “Shifting CCR7 towards Its Monomeric Form Augments CCL19 Binding and Uptake” (Cells, 2022).
